Measurements taken from PMC6009593 (Nucleic Acids Research, 2018).

B1: Pyrococcus furiosus Proliferating Cell Nuclear Antigen (PfuPCNA) (natural protein)
chain: MPFEIVFEGAKEFAQLIDTASKLIDEAAFKVTEDGISMRAMDPSRVVLIDLNLPSSIFSKYEVVEPETIGVNMDHLKKILKRGKAKDTLILKKGEENFLEITIQGTATRTFRVPLIDVEEMEVDLPELPFTAKVVVLGEVLKDAVKDASLVSDSIKFIARENEFIMKAEGETQEVEIKLTLEDEGLLDIEVQEETKSAYGVSYLSDMVKGLGKADEVTIKFGNEMPMQMEYYIRDEGRLTFLLAPRVEE

Legend:
[1] = biological target: Pyrococcus furiosus Mre11–Rad50 complex, wild type, full length (PfuMR wt) (Pyrococcus furiosus, UniProt Q8U1N9 1-426; P58301 1-882); test: SPR
[2] = biological target: B1; test: SPR

Sequence of Pyrococcus furiosus Mre11–Rad50 complex, wild type, full length (PfuMR wt) (P58301 whole entry, one chain of several): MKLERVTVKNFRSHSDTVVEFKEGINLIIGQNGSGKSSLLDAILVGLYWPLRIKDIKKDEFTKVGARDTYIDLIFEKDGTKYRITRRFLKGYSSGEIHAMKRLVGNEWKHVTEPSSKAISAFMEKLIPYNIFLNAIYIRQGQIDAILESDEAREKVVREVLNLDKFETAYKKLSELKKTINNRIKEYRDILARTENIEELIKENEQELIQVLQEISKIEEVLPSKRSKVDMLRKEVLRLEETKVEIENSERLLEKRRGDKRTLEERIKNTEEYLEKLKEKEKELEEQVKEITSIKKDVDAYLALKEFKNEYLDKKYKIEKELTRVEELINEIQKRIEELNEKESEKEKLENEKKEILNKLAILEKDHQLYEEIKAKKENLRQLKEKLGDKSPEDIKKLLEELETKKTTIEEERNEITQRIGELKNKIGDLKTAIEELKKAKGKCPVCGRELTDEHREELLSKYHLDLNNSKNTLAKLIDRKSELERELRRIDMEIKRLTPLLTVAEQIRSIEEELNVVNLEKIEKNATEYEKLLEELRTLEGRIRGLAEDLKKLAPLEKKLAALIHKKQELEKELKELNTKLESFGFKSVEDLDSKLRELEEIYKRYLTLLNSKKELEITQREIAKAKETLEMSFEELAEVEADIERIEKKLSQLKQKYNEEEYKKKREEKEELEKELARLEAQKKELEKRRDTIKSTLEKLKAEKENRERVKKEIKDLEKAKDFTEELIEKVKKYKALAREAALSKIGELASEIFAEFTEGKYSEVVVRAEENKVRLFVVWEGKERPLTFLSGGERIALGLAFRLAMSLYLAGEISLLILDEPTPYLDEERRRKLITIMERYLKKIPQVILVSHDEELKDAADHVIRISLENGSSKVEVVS

Kd [1] [nM] | Kd [2] [nM] | Binder
~4.07 |  | B1
 | 4050 | Ac-KKKRGTLDSWLGG-NH2 [PIP-like Mre11 peptide (PfuMre11 412–424)]
